Measured values published in article PMC6368585, “Chaperone activation and client binding of a 2-cysteine peroxiredoxin” (Nature Communications, 2019).

Key:
[1] = target: luciferase (thermally unfolded model client) [luciferase: P08659]
[2] = target: T1, luciferase (thermally unfolded model client) (UniProt P08659 1-550 = luciferase); assay: AUC; analytical ultracentrifugation of mTXNPxred with luciferase (Supplemental Methods); settings: both partners purified
T1 construct: luciferase, 63 kDa; cross-links were mapped onto the whole-chain model pdb 1LCI; source: bought: Promega
T1 sequence (P08659 whole entry): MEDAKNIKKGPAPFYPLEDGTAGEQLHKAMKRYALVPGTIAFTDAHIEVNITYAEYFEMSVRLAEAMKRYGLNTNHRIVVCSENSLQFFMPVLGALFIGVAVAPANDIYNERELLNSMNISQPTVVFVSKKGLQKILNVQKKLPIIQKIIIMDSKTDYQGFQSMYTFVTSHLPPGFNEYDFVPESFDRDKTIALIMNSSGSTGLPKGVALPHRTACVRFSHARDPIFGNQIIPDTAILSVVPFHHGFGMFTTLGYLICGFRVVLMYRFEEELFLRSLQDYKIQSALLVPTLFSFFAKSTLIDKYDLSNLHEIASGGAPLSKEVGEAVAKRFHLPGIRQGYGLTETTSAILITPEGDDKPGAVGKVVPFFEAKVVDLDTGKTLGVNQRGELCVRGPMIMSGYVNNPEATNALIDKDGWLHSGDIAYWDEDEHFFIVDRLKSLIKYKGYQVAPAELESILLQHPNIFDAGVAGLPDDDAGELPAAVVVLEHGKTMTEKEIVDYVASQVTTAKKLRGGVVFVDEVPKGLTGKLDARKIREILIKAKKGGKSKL

[3] = target: the molecule itself; assay: cross-linking; quantitative cross-linking (qCL) with isotopically light or heavy DSS (0.1 mM), each condition (Red or Ox, 30 °C or 42 °C) cross-linked apart and mixed 1:1; log2(H/L) of inter-protein K122/K123 peptide pairs across the dimer-dimer (A-type) interface; decamer to dimers

Sequence of luciferase (thermally unfolded model client) [luciferase: P08659] (P08659 whole entry): as above

Molecule	chaperone activity: suppression of the thermal aggregation of luciferase (0.1 µM, 42 °C, light scattering at 360 nm), different ratios up to a 40-fold molar excess, compared to wt-mTXNPx (% less active than wt-mTXNPx) [1]	stoichiometry N [2]	log2(H/L) of inter-protein cross-link Pep1-Pep1, heavy Red (42 °C) over light Red (30 °C) [3] [log2 ratio]	log2(H/L) of inter-protein cross-link Pep1-Pep2, heavy Red (30 °C) over light Red (42 °C) [3] [log2 ratio]	log2(H/L) of inter-protein cross-link Pep1-Pep2, heavy Red (42 °C) over light Red (30 °C) [3] [log2 ratio]
∆5mTXNPx, N-terminal truncation mutant lacking the first 5 residues of the mature protein (reduced) (from UniProt A0A6L0XFC6 33-226) (enzyme)	> 70				
reduced, decameric Leishmania infantum mitochondrial 2-Cys peroxiredoxin mTXNPx (mTXNPxred) (enzyme, Reduced form, decamer of five dimers; also called Prx1m; wt mTXNPx; source: E. coli BL21(DE3), purified; His tag removed with thrombin; reduced with 5 mM DTT; not shown: His6, N-terminal, cleaved; copies: 10) GSHMNLDYQMYRTATVREAAPQFSGQAVVNGAIKDINMNDYKGKYIVLFFYPMDFTFVCPTEIIAFSDRHADFEKLNTQVVAVSCDSVYSHLAWVNTPRKKGGLGEMHIPVLADKSMEIARDYGVLIEESGIALRGLFIIDKKGILRHSTINDLPVGRNVDEALRVLEAFQYADENGDAIPCGWKPGQPTLDTTKAGEFFEKNM		1 luciferase per mTXNPx decamer	-2.32	1.4	-1.55
